In US6881827B2, “Molecular cloning of a 7TM receptor (AXOR34) and screening methods thereof” (SmithKline Beecham Corporation, priority 1999, dated 2005):

biological target: T1, AXOR34 (Homo sapiens, UniProt Q9GZQ4); assay: FLIPR calcium mobilization assay in HEK-293 cells transiently transfected with AXOR34; assay type: cell-based; details: ligand concentrations 1 μM-0.1 nM
T1 construct: expressed in transfected cells; host or cells: HEK-293 cells, transient transfection (pCDN vector as the empty-vector control)
Description: There was no concentration-dependent activity for pCDNs or untransfected cells.

T1 sequence (Q9GZQ4 whole entry): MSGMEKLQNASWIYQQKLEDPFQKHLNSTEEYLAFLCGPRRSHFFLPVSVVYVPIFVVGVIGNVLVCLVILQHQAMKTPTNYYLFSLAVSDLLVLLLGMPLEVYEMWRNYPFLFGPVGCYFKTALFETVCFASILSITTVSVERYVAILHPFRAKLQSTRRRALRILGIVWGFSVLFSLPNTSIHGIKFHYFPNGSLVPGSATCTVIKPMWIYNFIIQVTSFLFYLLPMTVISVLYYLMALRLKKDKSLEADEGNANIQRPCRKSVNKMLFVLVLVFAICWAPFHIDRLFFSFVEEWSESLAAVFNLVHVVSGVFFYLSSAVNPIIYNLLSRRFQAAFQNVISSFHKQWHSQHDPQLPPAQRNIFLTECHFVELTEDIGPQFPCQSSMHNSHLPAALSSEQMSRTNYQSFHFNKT

calcium mobilization response | Substance
robust calcium mobilization responses | rat Neuromedin U-23 (YKVNEYQGPVAPSGGFFLFRPRN; HOMO SAPIENS) [rat NmU-23]
robust calcium mobilization responses | porcine Neuromedin U-25 (FLVDEEFQGPIVSQNRRYFLFRPRN; HOMO SAPIENS) [porcine NmU-25]
robust calcium mobilization responses | porcine Neuromedin U-8 [porcine NmU-8]
